Experimental findings from US20040072750A1, “Compounds and methods for the modulation of CD154” (priority 2001, published 2004) are described below.

The test system of series [1] is platelets. The series can be described thus: Platelet aggregation in PRP by light-transmission aggregometry. The format is cell-based, human. The conditions noted are these: before and after 7 days of aspirin. The procedure: (§1) In other experiments, various concentrations of eptifibatide, abciximab or tirofiban were added to PRP before the addition of TRAP. In the eptifibatide experiments, the release of βTG from platelet a granules was determined from PPP samples by ELISA. Inhibition of aggregation by GP IIb-IIIa antagonists was determined in PPACK-anticoagulated PRP by light-transmission aggregometry (Chrono-Log) as described in Phillips et al. (1995) J Exp. Med 182:33-40. To assess the effect of aspirin use on the release of sCD154 from platelets, PRP was obtained from 7 donors, incubated with a single concentration of GP IIb-IIIa inhibitor, and stimulated with 20 μmol/L ADP, 5 μmol/L TRAP or 4 μg/mL collagen for 30 minutes while rocking at 37° C. Resultant PPP was measured for sCD154. The same donors then took 325 mg of aspirin for 7 days. PRP was again collected and subjected to the same conditions, and the release of sCD154 was determined. A control reading (no addition of inhibitor) was taken with the agonist 0.5 mmol/L arachidonic acid in citrated PRP to ensure that the aspirin had been taken.

Series [2] has as its system platelets. The series can be described thus: Release of sCD154 from stimulated platelets in platelet-rich plasma (ELISA). The format is cell-based, human. The conditions noted are these: for Inhibition of sCD154 Release at >90% Platelet Aggregation Inhibition, % / Potentiation of sCD154 Release, %: TRAP-stimulated platelets, average and SD; for Inhibition of sCD154 Release at >90% Platelet Aggregation Inhibition, %: release without GP IIb-IIIa inhibitor set at 100%; for Potentiation of sCD154 Release, %: maximal potentiation, release without inhibitor set at 100%. The procedure: Platelet-rich plasma (PRP) was prepared from human donors by obtaining blood through a 19-gauge butterfly into PPACK anticoagulant (8.6 ml of 2.1 mM PPACK, Calbiochem, La Jolla, Calif.: final concentration 0.3 mM). Blood was aliquoted into 15 ml polypropylene tubes and centrifuged at 900 rpm for 20 minutes (160×g). The platelet rich plasma (PRP) was carefully removed and pooled in a new tube. Platelet counts were taken and recorded. Aliquots of PRP at 37° C. were then added to 1.5 ml microcentrifuge tubes containing various amounts of eptifibatide. To initiate aggregation, 20 μM ADP 4 μg/mL collagen or 5 μM TRAP6 was added and samples were rocked on a Nutator for 30 minutes at 37° C. The tubes were put on ice and immediately centrifuged at 15,000×g for 10 minutes at 4° C.
The platelet-poor plasma (PPP) supernatant was removed to new tubes and the levels of sCD154 in these samples were measured by ELISA. There was a time-dependent increase in sCD154 release when platelets were aggregated with either ADP or TRAP6.
as §1
Background: ELISA stands for enzyme-linked immunosorbent assay.

The test system of another series is washed platelets. The series can be described thus: Fibrinogen binding to washed platelets and microparticle generation (flow cytometry). The format is cell-based, human. The conditions noted are these: 2 μM protein, 60 minutes at 37° C.; FIG. 10. How it is done:
Venous blood was collected from normal donors into ACD buffer (85 mM Sodium Citrate, […] and 71 mM Citric acid) containing 0.05 μg/ml prostaglandin 12(PGI2). Blood was later centrifuged at 160×g for 20 minutes to collect platelet rich plasma (PRP). PRP was centrifuged at 1100×g for 10 minutes to sediment platelets. Platelets were washed twice with CGS buffer (13 mM trisodium citrate, 120 mM sodium chloride and 30 mM dextrose pH 7.0). The first wash had 0.03 μg/ml PGI2. Washed platelets were finally suspended in Tyrodes-Hepes buffer (12 mM sodium bi-carbonate, 138 mM sodium chloride, 5.5 mM glucose, 2.9 mM potassium chloride, 10 mM Hepes, 1 mM calcium chloride and 1 mM magnesium chloride, pH 7.4).
Washed platelets (1×10^7/ml) were incubated for 60 minutes at 37° C. with 2 μM soluble CD154 (sCD154) or mutant sCD154 (D117E mutation in the KGD sequence) in the presence or absence of eptifibatide or anti-CD40 antibody. All incubations had 100 nM Alexa-Fibrinogen (Molecular probes, Eugene, Oreg.). Samples were diluted 10 fold with stain buffer (BD Pharmingen, Los Angeles, Calif.) after incubation and analyzed by flow cytometry (FACSort, BD, San Jose, Calif.).

Another series deals with platelets in whole blood. Kind of series: Perfusion chamber: thrombus formation of whole blood on protein-coated surface under shear. The settings on record: with or without Fg. The series is classed as cell-based, human. How it is done:
The effect of CD154 on the aggregation of platelets under conditions of high shear stress were evaluated. Recombinant CD154 (rCD154 or rCD40L) was compared to fibrinogen (Fg) in its ability to form thrombi as well as in combination with Fg. Controls also included CD154 in which the KGD eptifibatide-recognition sequence was mutated to KGE (CD154(KGE) or CD40L(KGE)). Briefly, a silicone gasket with a flow path height of 127 μm was placed between a flat perfusion chamber (Glycotech, Rockville, Md.) and a protein-coated petri dish as described (Andre, P. et al., Nature Medicine, 8:247-252 (2002)). Petri dishes were coated with rCD40L, Fibrinogen (Fg), rCD40L+Fg, mutated CD40L (CD40L(KGE)), CD40L(KGE)+Fg. In one experiment, the glycoprotein IIb/IIIa antagonist eptifibatide (2 μM) was incubated with whole blood before perfusion over the rCD40L-coated surface. When Fg was coated with either rCD40L or CD40L(KGE), each molecule was deposited at 25 μg/cm^2. Coating of the proteins was performed using the spray method in which 25 μl of a 1 mg/ml protein solution is coated onto the plastic with a retouching air brush resulting in a concentration of 25 μg/cm^2 (Houdijk, WP et al., J. Clin. Invest., 75:531-540 (1985)). Human peripheral blood was collected on PPACK (40 μmol/L final concentration) and perfused for 4 minutes over the protein-coated surface. Shear rates of 1500-1600/s, 500-600/s and 100-200/s, were generated with flow rates of ˜0.6, 0.25 and 0.075 ml/min, respectively. Measurements of thrombotic deposits were performed using the Simple PCI software image analysis program (Technical Instrument, Burlingame, Calif.).

Series [3] deals with platelets. Kind of series: Platelet function (Accumetrics RPFA) in patients undergoing PCI. The series is classed as in vivo, human. The settings on record: 10 minutes post final bolus. The procedure: (§2) Patients (n=45) undergoing PCI were enrolled. The study was approved by the IRB and all patients signed informed consent. Exclusion criteria included higher risk clinical scenarios mandating, according to institutional clinical practice, the use of GP IIb/IIIa antagonists (i.e., acute ST elevation MI or non q-wave MI with CPK elevation, pain at rest with EKG changes <24 hours, visible thrombus, pain refractory to heparin), pre-procedural GP IIb/IIIa inhibitor treatment, restenotic and graft lesions, and standard conditions excluding GP IIb/IIIa inhibitor use.
(§3) All patients received aspirin and intravenous heparin (50-70U/kg) monitored by activated clotting time (ACT) during the procedure. Patients were administered either no GP IIb/IIIa inhibitor, eptifibatide (180 μg/kg double bolus followed by 2 μg/kg/min for 16 h), or abciximab (0.25 mg/kg bolus intravenously followed by 0.125 μg/kg/min for 12 h) at the discretion of the primary operator. Platelet function was monitored using PPACK-anticoagulated blood and the Accumetrics RPFA device at baseline and 10 min post-final bolus. Interventionalists were blinded to RPFA results and not permitted to modify GP IIb-IIIa inhibitor dosing. Post-PCI, patients received clopidogrel (300 mg PO) followed by 75 mg daily.

Series [4] is described as follows: Plasma inflammatory markers after PCI (ELISA). The series is classed as in vivo, human. The procedure:
as §2, §3
Venous blood samples were collected prior to (t=0) and at 30 minutes, 2 hours, and 24 hours after the angioplasty wire was advanced across the lesion. Blood was collected into 10 mL tubes with either EDTA (for sCD 154 analysis) or PPACK (for all other analyses) anticoagulant, centrifuged at 4° C., and stored at −80° C. until analysis.
Inflammatory markers in plasma samples were quantified by commercially available ELISA for sCD154 (Alexis BioChemical) with modification (12), RANTES, IL6, sICAM-1 (BioSource), and CRP (Alpha Diagnostic International).
Primary endpoint data are presented as mean±SE. Data were log transformed to achieve a normal distribution verified by Kolmogorov-Smirnov test for normality. Statistical comparisons were performed using two-way ANOVA to determine a difference in mean values over time between the 3 groups. Pair-wise comparisons were performed when the ANOVA false-positive rate was ≦5%. A Bonferroni corrective for 3 pair-wise comparisons was applied, in which the p-value of […] was used to signify a false-positive rate of 5%. For ANOVA with a false-positive rate of ≧5%, the pair-wise comparisons were reported to be statistically nonsignificant (NS). Baseline and procedural characteristics data were analyzed with standard one way ANOVA for continuous data in more than 3 groups and a student's t-test for comparison of 2 groups. A Mann-Whitney Rank Sum test was used for nominal data. Statistical significance was assumed if the false positive rate was ≦5%.

“Also recorded” adds a separate entry of the source.

Turning to `CC(=O)Oc1ccccc1C(=O)O` [aspirin], the “platelet aggregation in response to optimal doses of platelet agonists” value with platelets [1] was “no effect”. The “release of sCD154 from platelets stimulated with ADP or TRAP” value in the series on platelets [2] (after aspirin use) is on record as “unaffected; also recorded: does not block”. In the series with platelets [2] (aspirin, in words), the “release of CD154 from platelets activated by collagen” value is “blocks”. The “decrease in the release of sCD154 from collagen-induced platelet aggregates” value in the series on platelets [2] (donors took 325 mg aspirin for 7 days, collagen 4 μg/mL) came out at 50%.
As for `CCCCS(=O)(=O)N[C@@H](Cc1ccc(OCCCCC2CCNCC2)cc1)C(=O)O` [tirofiban], in the series with platelets [2], the “Inhibition of sCD154 Release at >90% Platelet Aggregation Inhibition, %” value stood at 80 ± 5.3% and the “Potentiation of sCD154 Release, %” value came to 19 ± 7.7%.

B1: CD40L(KGE): CD154 in which the KGD eptifibatide-recognition sequence was mutated to KGE (D117E) (protein, UniProt P29965 113-261, looked up, variant D117E)
CD40 ligand, soluble form: MQKGEQNPQIAAHVISEASSKTTSVLQWAEKGYYTMSNNLVTLENGKQLTVKRQGLYYIYAQVTFCSNREASSQAPFIASLCLKSPGRFERILLRAANTHSSAKPCGQQSIHLGGVFELQPGASVFVNVTDPSQVSHGTGFTSFGLLKL
For B1, the “fibrinogen binding to platelets and generation of microparticles” value with washed platelets was “did not stimulate”. Further, the “aggregate formation on coated surface” value in the series with platelets in whole blood is “does not induce”.

B2: abciximab (antibody, chains of the INN, looked up, V domains shown)
VH: EVQLQQSGTVLARPGASVKMSCEASGYTFTNYWMHWVKQRPGQGLEWIGAIYPGNSDTSYIQKFKGKAKLTAVTSTTSVYMELSSLTNEDSAVYYCTLYDGYYVFAYWGQGTLVTVSA
VL: EIVLTQSPVTLSVTPGDSVSLSCRASRDISNNLHWFQQTSHESPRLLIKYASQSMSGIPSRFSGSGSGTDFTLSINSVETEDFGMYFCQQTNSWPYTFGGGTKLEIK
modifications: Fab
notes: parenteral GP IIb-IIIa antagonist
As for B2, in the series with platelets [3], the “Platelet inhibition (% inhibition)” value was 93±4%. For the same molecule, the “CRP levels after PCI” value in series [4] (2-24 hours after PCI, not statistically significant) is “lowest levels”. Besides, the “plasma RANTES levels after PCI” value in series [4] (versus baseline) is reported as “not observed”. In addition, in the series with platelets [2], the “Inhibition of sCD154 Release at >90% Platelet Aggregation Inhibition, %” value is given as 57 ± 8.2% and the “Potentiation of sCD154 Release, %” value was 19 ± 7.5%.
